Measurements reported in article PMC9143577, “Cationic Geminoid Peptide Amphiphiles Inhibit DENV2 Protease, Furin, and Viral Replication” (Molecules, 2022).

How the values were obtained:
[1] = molecular target: DENV2 protease (NS2B-NS3 construct CF40-…-NS3) (dengue virus serotype 2)
trypsin [2] = molecular target: trypsin
human furin = human furin (Homo sapiens, UniProt P09958)
DENV2 protease = DENV2 protease (Dengue virus type 2, UniProt P14340); assay: biochemical
Method: IC50 values were determined in CDD Vault using the Levenberg–Marquardt algorithm for fitting a Hill equation to dose-response data.
Enzyme expression and purification
DENV2 Protease Preparation. The enzyme was expressed and purified as previously described (ref. S1). Briefly, the vector with CF40 fused to NS3pro was used for high- level inducible expression of recombinant enzyme, tagged on the N-t erminus with hexahistidine. E. coli strain SG13009 cells were transformed with the expression plasmid and grown in kanamycin at 37 °C until the absorb ance at 600 nm r each ed a v alue of 0.6. Cells were induced for expression by the addition of isopropyl-β-D-thiogalactopyranose to a final concentration of 1 mM and incubated for additional 3 h at 30 °C. The cells were harvested by centrifugation, resuspended in 1 mL of a lysis buffer, subjected to sonication, and centrifuged again. The supernatant was collected and passed through a 2- mL column of nitrilotriacetic acid-agarose (Qiagen) loaded with Ni2+. The column was extensively washed with buffer containing […], and the protein was then eluted from then column in buffer containing 100 mM imidazole.
Elution samples were analyzed by 15% SDS-PAGE and the substrate Z-RR- MCA was used to distinguish the activity of DENV2 protease from that of contaminating bacterial […]
proteases. […]

DENV2 replicon = details: 10 µM; DENV2 HeLa replicon cells treated for 2 days
Method: To investigate the effect of geminoids on viral replication, we used HeLa cells containing a DENV2 replicon. Instead of the structural proteins of DENV2, the replicon encodes a luciferase reporter that can be used as a readout for DENV2 protease dependent virus replication. Cell viability was assessed on the same cells using a colourimetric assay based on 3-(4,5-dimethylthiazol-2-yl)-5-(3-carboxymethoxyphenyl)-2H-tetrazolium (MTS) reduction, and by light microscopy. […] The viability of unmodified HeLa cells after treatment with these compounds was also tested in a separate experiment using the Celltiter Blue Viability Assay (Promega, see Supporting Information) in the concentration range of 0.8–50 μM.
The replicon assay was carried out as described earlier using HeLa cells that contain a stably replicating DENV2 replicon expressing a luciferase reporter gene. The amphiphilic inhibitors were added as concentrated solutions in DMSO; the same amount of DMSO was used as the blank experiment, with the viral inhibitor ribavirin as a positive control. Luciferase activity and cell viability were assessed as described previously.

[3] = tested on: wildtype DENV2 (DENV2 NGC); format: cell-based, DENV2 New Guinea strain; details: LLC-MK2 cells, percentage of infected cells, 2 days after infection, read-out: DENV Replication in LLC-MK2 Cells EC50
Method: LLC-MK2 (Monkey Rhesus Kidney cells; CCL-7.1) were passaged in assay medium (EMEM (Lonza Cat No: BESP069F) supplemented with 10% heat-inactivated FCS (Lonza), 2% Pen/strep (Gibco), 2% L-Glutamine (Gibco), 2% Hepes (Lonza), and 1% sodium bicarbonate (Lonza)) prior to use in the antiviral assay. Cells were seeded in 96-well plates (10^5 cells/well) in assay medium to be exposed 16–24 h later to compounds and viruses. The plates were incubated at 37 °C/5% CO2 overnight to allow for cell adherence.
Compounds were solubilized in DMSO and evaluated using two-fold serial dilutions (8-points dose-response curves starting at a concentration of 50 µM) in duplicate for the antiviral assays. Compounds were diluted in assay medium at 1× test concentrations. Ribavirin (Sigma Aldrich, Amsterdam, The Netherlands) was evaluated as a positive control compound in the antiviral assays.
DENV2 New Guinea strain was grown in AP-61 insect cells (in-house cell bank) in complete Leibovitz medium containing 1% pen/strep (Gibco), 1% L-glutamin (Gibco), 0.5% Hepes (Lonza), 0.5% sodium bicarbonate (Lonza), and 10% tryptose phosphate for the production of stock virus pools. On the day of cellular infection, an aliquot of virus was removed from the freezer (−80 °C) and allowed to thaw in water in a biological safety cabinet. Virus was diluted into assay medium (10^4 TCID50), and 100 µL of this was added to each well, resulting in a TCID50 of 100. Cells were incubated for 2 h at 37 °C/5% CO2 and washed 3 times with blank assay medium. Directly after washing, 100 µL of the compound dilutions were added to each well.
Each plate contained cell control wells (cells only), virus control wells (cells plus virus), duplicate drug toxicity wells per compound (cells plus drug only), as well as duplicate experimental wells (drug plus cells plus virus).
Virus-infected cells were visualised using a DENV2 immunoperoxidase staining protocol. Two days after infection, cells were inactivated with ethanol 70% for 30 min and washed with PBS. Fixed plates were incubated with PBS containing 0.05% H2O2 for 20 min at 37 °C and washed again 3 times with PBS. Plates were incubated for 1 h with 50 µL monoclonal anti-DENV-2 NS1 antibody (Millipore; diluted 1:500 in EMEM). Samples were washed once with PBS containing 0.05% Tween20 and twice with PBS only. Secondary polyclonal goat anti-mouse IgG HRP (Dako; diluted 1:2000) was added 50 µL per well and incubated for 1 h at 37 °C in the dark. […] Bidest water was added after removal of the substrate solution, and all virus-positive cells per well (marked by brown/red staining) were counted under a microscope. […]

[4] = Critical micelle concentration by pyrene fluorescence; format: physicochemical; details: pure water
Method: Pyrene was used as a probe to study the changes in its fluorescence, in particular the ratio (I1/I3) of the intensities I1 and I3 […] 373 and 383 nm, respectively. An abrupt change in this ratio with increasing surfactant concentration points to an increase in hydrophobicity of the environment of the probe corresponding to the formation of aggregates. See Supporting Information for details.
Determ ination of the critical m icelle concentrat ion (CMC)
A solution of 5 mg pyrene in methanol (10 mL) was prepared and diluted 20 times. 50 µ L from the dil uted solution was added to geminoid solutions in water to a final volume of 3 mL. The geminoid samples were made from a stock solution of 500 µ M in water in a concentration range from 5 to 200 µ M. The fluorescence spectra were then measured after 1 hour wi th the […] set to 334 nm and emission range 350- 500 nm, excitation slit […], emission slit […] and at 25 °C. The ratio of the intensities was then plotted against the geminoid concentration, and the CMC is calculated from the intersection point of the best fits to the data points below and above it (Fig ure S5).
Concentration (µM) Concentration (µM)
Concentration (µM)Concentration (µM) Concentration (µM)Concentration (µM)
(1 picture or pasted object on this page, not shown here)

trypsin [5] = assay: Trypsin inhibition assay with Z-FR-MCA; format: biochemical; details: 4 nM trypsin, 11.4 μM Z-FR-MCA; 100 mM Tris.HCl, pH 8.0, 10 mM CaCl2; read-out: IC50 (MCA Substrates) Trypsin
Method: The assay was carried out in 100 mM Tris.HCl, 10 mM CaCl2, pH 8.0, with 4 nM enzyme and 11.4 µM Z-FR-MCA substrate.

DENV2 protease, sequence (P14340 1476-1653): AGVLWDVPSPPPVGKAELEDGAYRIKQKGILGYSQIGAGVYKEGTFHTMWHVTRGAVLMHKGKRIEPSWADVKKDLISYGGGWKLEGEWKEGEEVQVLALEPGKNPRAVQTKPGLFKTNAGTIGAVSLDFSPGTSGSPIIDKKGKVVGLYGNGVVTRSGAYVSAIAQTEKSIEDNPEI
DENV2 protease, sequence (P14340 1398-1437): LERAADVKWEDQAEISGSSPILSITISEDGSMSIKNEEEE
human furin, sequence (P09958 27-794): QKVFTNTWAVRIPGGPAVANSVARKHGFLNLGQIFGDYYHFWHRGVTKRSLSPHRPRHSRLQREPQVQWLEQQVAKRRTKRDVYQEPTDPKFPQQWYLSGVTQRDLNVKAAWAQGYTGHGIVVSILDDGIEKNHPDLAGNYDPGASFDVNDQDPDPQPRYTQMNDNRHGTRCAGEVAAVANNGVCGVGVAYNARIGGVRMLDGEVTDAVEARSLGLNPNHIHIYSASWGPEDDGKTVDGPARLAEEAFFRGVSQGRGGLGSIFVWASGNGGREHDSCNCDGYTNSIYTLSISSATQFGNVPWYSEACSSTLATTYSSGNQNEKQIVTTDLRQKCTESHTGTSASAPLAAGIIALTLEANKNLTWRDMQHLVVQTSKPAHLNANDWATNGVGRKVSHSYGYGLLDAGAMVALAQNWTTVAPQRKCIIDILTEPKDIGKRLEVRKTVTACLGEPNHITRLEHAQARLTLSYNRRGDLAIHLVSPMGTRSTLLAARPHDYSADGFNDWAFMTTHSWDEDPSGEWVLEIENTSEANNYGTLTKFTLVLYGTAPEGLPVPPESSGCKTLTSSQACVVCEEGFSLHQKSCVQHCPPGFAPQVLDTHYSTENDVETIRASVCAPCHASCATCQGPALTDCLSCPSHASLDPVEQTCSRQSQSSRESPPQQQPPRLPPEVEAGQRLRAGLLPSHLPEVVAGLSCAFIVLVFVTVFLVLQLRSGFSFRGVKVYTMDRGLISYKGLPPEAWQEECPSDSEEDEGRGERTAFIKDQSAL

Compound: C15H31C(O)-Lys-(Ala)-Lys-NHC16H33 (C16-KAK-C16) (peptide)
- IC50 of inhibition of DENV2 protease activity (20 nM enzyme, substrate Z-RR-MCA, 50 mM Tris.HCl pH 9.0, 20% glycerol, 37 °C) [1]: 0.66 µM
- IC50 of inhibition of DENV2 protease activity (50 µM Tyr(3-NO2) substrate, 50 mM Tris.HCl pH 9.0, 10% ethylene glycol, 0.0016% Brij 58) [1]: 2.3 µM
- IC50 of inhibition of trypsin activity (4 nM trypsin, 11.4 µM Z-FR-MCA, 100 mM Tris.HCl pH 8.0, 10 mM CaCl2) (trypsin [2]): 17.2 µM
- IC50 of inhibition of furin activity (0.76 nM furin, substrate Ac-RVRR-MCA, 10 mM MES pH 7.0, 37 °C) (human furin): 3.57 µM

Compound: C15H31C(O)-Lys-Lys-NHC16H33 (C16-KK-C16) (peptide)
- IC50 of inhibition of DENV2 protease activity (20 nM enzyme, substrate Z-RR-MCA, 50 mM Tris.HCl pH 9.0, 20% glycerol, 37 °C) [1]: 4.25 µM
- IC50 of inhibition of trypsin activity (4 nM trypsin, 11.4 µM Z-FR-MCA, 100 mM Tris.HCl pH 8.0, 10 mM CaCl2) (trypsin [2]): 85.7 µM

Compound: CCCCCCCCCCCCCCCCNC(=O)[C@H](CCCCN)NC(=O)[C@H](CCCCN)NC(=O)CCCCCCCCCCCCCCC [Compound 1]
- IC50 (DENV2 protease): 4.25 ± 0.27 µM

Compound: C15H31C(O)-Lys-(Gly)-Lys-NHC16H33 (C16-KGK-C16) (peptide)
- IC50 of inhibition of DENV2 protease activity (20 nM enzyme, substrate Z-RR-MCA, 50 mM Tris.HCl pH 9.0, 20% glycerol, 37 °C) [1]: 1.94 µM
- IC50 of inhibition of DENV2 protease activity (50 µM Tyr(3-NO2) substrate, 50 mM Tris.HCl pH 9.0, 10% ethylene glycol, 0.0016% Brij 58) [1]: 2.1 µM
- IC50 of inhibition of trypsin activity (4 nM trypsin, 11.4 µM Z-FR-MCA, 100 mM Tris.HCl pH 8.0, 10 mM CaCl2) (trypsin [2]): 41 µM

Compound: CCCCCCCCCCCCCCCCNC(=O)[C@H](CCCCN)NC(=O)CNC(=O)[C@H](CCCCN)NC(=O)CCCCCCCCCCCCCCC [Compound 3a]
- inhibition of luciferase activity (DENV2 replicon) (DENV2 replicon): 38%
- EC50 [3]: 12.7 ± 1.1 µM
- CMC (Critical Micelle Concentration) [4]: 55 to 72 µM
- IC50 (trypsin [5]): 41 ± 2 µM
